Assay results reported in patent US20260056186A1 (JIANGSU HENGRUI PHARMACEUTICALS, published 2026).

B1: Atacicept (Fc fusion)
chain: AMRSCPEEQYWDPLLGTCMSCKTICNHQSQRTCAAFCRSLSCRKEQGKFYDHLLRDCISCASICGQHPKQCAYFCENKLRSEPKSSDKTHTCPPCPAPEAEGAPSVFLFPPKPKDTLMISRTPEVTCVVVDVSHEDPEVKFNWYVDGVEVHNAKTKPREEQYNSTYRVVSVLTVLHQDWLNGKEYKCKVSNKALPSSIEKTISKAKGQPREPQVYTLPPSRDELTKNQVSLTCLVKGFYPSDIAVEWESNGQPENNYKTTPPVLDSDGSFFLYSKLTVDKSRWQQGNVFSCSVMHEALHNHYTQKSLSLSPGK
B2: B575701 (Fc fusion)
chain: LSCRKEQGKFYDHLLRDCISCASICGQHPKQCAYFCENKLRSPGMLQMAGQCSQNEYFDSLLHACIPCQLRCSSNTPPLTCQRYCNASVTNSVKGTNADKTHTCPPCPAPEAEGAPSVFLFPPKPKDTLMISRTPEVTCVVVDVSHEDPEVKFNWYVDGVEVHNAKTKPREEQYNSTYRVVSVLTVLHQDWLNGKEYKCKVSNKALPSSIEKTISKAKGQPREPQVYTLPPSRDELTKNQVSLTCLVKGFYPSDIAVEWESNGQPENNYKTTPPVLDSDGSFFLYSKLTVDKSRWQQGNVFSCSVMHEALHNHYTQKSLSLSPGK
notes: TACI-BCMA fusion protein; also called TACI-d2-BCMA-ECD-Fc
B3: B575704 (Fc fusion)
chain: MLQMAGQCSQNEYFDSLLHACIPCQLRCSSNTPPLTCQRYCNASVTNSVKGTNASRVDQEERFPQGLWTGVAMRSCPEEQYWDPLLGTCMSCKTICNHQSQRTCAAFCRSLSCRKEQGKFYDHLLRDCISCASICGQHPKQCAYFCENKLRSPVNLPPELDKTHTCPPCPAPEAEGAPSVFLFPPKPKDTLMISRTPEVTCVVVDVSHEDPEVKFNWYVDGVEVHNAKTKPREEQYNSTYRVVSVLTVLHQDWLNGKEYKCKVSNKALPSSIEKTISKAKGQPREPQVYTLPPSRDELTKNQVSLTCLVKGFYPSDIAVEWESNGQPENNYKTTPPVLDSDGSFFLYSKLTVDKSRWQQGNVFSCSVMHEALHNHYTQKSLSLSPGK
notes: TACI-BCMA fusion protein; also called BCMA-ECD-TACI-T2-Fc

Assays:
[1] = target: T1, BAFF (PeproTech, Cat: 310-13) (UniProt Q9Y275 134-285); assay: ELISA, plate coated with BAFF 1 ug/mL, HRP anti-human Fc, OD450
Description: (§1) BAFF (PeproTech, Cat: 310-13) was diluted to 1 μg/mL with PBS, and a 96-well plate was coated with the dilution overnight at 4° C. The plate was washed with PBST and blocked with Blocking Buffer (PBST containing 1% BSA) at 37° C. for 1 h. The plate was tapped. The test antibodies were diluted with Blocking Buffer. Incubation was performed at 37° C. for 1.5 h. The plate was washed with PBST. An HRP-mouse anti-human Fc antibody (GenScript, Cat: A01854-200) was diluted with Blocking Buffer. Incubation was performed at 37° C. for 40 min. The plate was washed with PBST. 100 μL of TMB substrate solution (Biopanda, Cat: TMB-S-003) was added, and color development was performed at 37° C. for 3 min. 100 μL of ELISA stop solution (Solarbio, Cat: C1058) was added. OD450 was measured.

[2] = target: T1, BAFF (PeproTech, Cat: 310-13); assay: ELISA, BAFF coated; reference telitacicept
Description: as §1, with “The capabilities of TACI-BCMA fusion proteins (B575701, B575702, B575703, and B575704) to bind to BAFF and APRIL were assessed by ELISA as follows: BAFF (PeproTech,” for “BAFF (PeproTech,”, “Cat: 310-13) or ARPIL (Acro Biosystems, Cat: APL-H52D1) was diluted” for “Cat: 310-13) was diluted”, “96-well plate (Costar, Cat: 3590) was coated” for “96-well plate was coated”
(§2) The capability of B575702 to bind to BAFF was consistent with that of B575704, and their EC₅₀ values decreased to ¼ of that of telitacicept. The capability of B575701 to bind to BAFF was consistent with that of B575703, and their EC₅₀ values decreased to ½ of that of telitacicept.

[3] = target: T2, APRIL (Acro Biosystems, Cat: APL-H52D1) (UniProt O75888 115-250, limits assumed); assay: ELISA, APRIL coated at 1 ug/mL, anti-human Fc-HRP, OD450
T2 construct: also called ARPIL
T2 sequence (looked up): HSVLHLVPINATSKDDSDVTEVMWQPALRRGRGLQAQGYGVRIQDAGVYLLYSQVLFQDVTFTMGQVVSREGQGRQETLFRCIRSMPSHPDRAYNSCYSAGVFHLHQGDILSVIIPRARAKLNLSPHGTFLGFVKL
Description: as §1, with “The capabilities of TACI-BCMA fusion proteins (B575701, B575702, B575703, and B575704) to bind to BAFF and APRIL were assessed by ELISA as follows: BAFF (PeproTech,” for “BAFF (PeproTech,”, “Cat: 310-13) or ARPIL (Acro Biosystems, Cat: APL-H52D1) was diluted” for “Cat: 310-13) was diluted”, “96-well plate (Costar, Cat: 3590) was coated” for “96-well plate was coated”
The capabilities of the 4 fusion proteins to bind to APRIL were all stronger than that of telitacicept, and their EC₅₀ values decreased to ¼ to ⅓ of that of telitacicept.

[4] = target: T1, BAFF (PeproTech, Cat: 310-13); assay: ELISA, BAFF coated at 1 ug/mL, anti-human Fc-HRP, OD450
Description: as §1, with “The capabilities of TACI-BCMA fusion proteins (B575701, B575702, B575703, and B575704) to bind to BAFF and APRIL were assessed by ELISA as follows: BAFF (PeproTech,” for “BAFF (PeproTech,”, “Cat: 310-13) or ARPIL (Acro Biosystems, Cat: APL-H52D1) was diluted” for “Cat: 310-13) was diluted”, “96-well plate (Costar, Cat: 3590) was coated” for “96-well plate was coated”
as §2

T1 sequence (Q9Y275 134-285 limits assumed): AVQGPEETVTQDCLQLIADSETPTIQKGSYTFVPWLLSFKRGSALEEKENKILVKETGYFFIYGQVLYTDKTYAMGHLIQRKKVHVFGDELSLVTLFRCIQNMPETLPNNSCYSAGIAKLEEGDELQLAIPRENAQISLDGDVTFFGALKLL

| Binder | EC50 (read off the curve) [1] | EC50 relative to telitacicept [2] | EC50 [3] | Emax [3] | EC50 [4] | Emax [4] |
| --- | --- | --- | --- | --- | --- | --- |
| B1 | ~0.3 nM | – | – | – | – | – |
| B2 | – | 0.5 fold | 0.205 nM | 2.69 | 0.324 nM | 2.31 nM (as printed) |
| B3 | – | 0.25 fold | 0.189 nM | 2.68 | 0.187 nM | 2.29 nM (as printed) |
